Laboratory results published in US20140087995A1 (published 2014).
Where two headings read alike, the source gives them in different places. Numbered stars: 1 amine (or outer) side, 2 acyl side, 3 side chain; on linkers, the order of the positions; unused ones are H or OH. Bridge positions count the residues as written; N and C are the ends. Side chains are listed from the residue outwards. Ends that are not written are not given here. * marks the point of attachment. C20 diacid = O=C(O)CCCCCCCCCCCCCCCCCCC(=O)*; γGlu = O=C(O)[C@H](CCC(=O)[*:2])N[*:1]; AEEA = NCCOCCOCC(=O)O

What was measured:
[1] = target: T1, human amylin receptor (amylin 3(a) receptor: human calcitonin receptor plus RAMP-3) (human, UniProt P30988 25-474; O60896 24-148); assay: cell-based or functional assay
T1 sequence (looked up) 1: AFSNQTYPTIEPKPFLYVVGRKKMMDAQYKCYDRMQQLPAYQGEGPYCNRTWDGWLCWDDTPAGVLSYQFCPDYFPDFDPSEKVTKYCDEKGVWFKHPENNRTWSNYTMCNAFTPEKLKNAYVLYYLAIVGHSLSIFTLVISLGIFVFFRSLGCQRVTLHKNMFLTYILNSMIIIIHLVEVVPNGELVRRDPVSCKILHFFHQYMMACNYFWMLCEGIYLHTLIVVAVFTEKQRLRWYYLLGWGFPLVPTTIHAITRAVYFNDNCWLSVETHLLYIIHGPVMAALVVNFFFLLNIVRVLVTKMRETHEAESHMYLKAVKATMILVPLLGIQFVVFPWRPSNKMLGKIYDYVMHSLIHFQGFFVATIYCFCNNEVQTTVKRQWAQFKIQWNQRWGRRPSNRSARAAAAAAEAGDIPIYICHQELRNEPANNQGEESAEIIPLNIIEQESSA
T1 sequence (looked up) 2: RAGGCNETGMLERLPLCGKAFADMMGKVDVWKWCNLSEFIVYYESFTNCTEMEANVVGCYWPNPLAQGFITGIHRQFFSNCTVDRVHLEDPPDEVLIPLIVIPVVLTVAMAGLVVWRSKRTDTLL

[2] = target: T2, human calcitonin receptor (human, UniProt P30988 25-474); assay: cell-based or functional assay
T2 sequence (looked up): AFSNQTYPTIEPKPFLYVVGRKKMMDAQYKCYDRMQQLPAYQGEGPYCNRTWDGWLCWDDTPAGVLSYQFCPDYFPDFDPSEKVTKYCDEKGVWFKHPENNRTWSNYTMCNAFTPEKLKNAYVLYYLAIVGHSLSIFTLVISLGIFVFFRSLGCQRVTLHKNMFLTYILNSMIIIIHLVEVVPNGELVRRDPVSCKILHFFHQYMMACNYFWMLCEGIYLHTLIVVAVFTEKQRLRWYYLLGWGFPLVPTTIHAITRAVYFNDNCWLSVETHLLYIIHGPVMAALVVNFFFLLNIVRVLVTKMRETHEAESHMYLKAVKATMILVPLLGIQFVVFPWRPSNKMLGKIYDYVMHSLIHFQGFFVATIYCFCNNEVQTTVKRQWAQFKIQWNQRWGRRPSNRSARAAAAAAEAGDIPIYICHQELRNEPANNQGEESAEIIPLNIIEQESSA

[3] = target: T1, human amylin receptor (amylin 3(a) …); assay: cell-based or functional assay; remark: listed apart in the source
[4] = target: T2, human calcitonin receptor; assay: cell-based or functional assay; remark: listed apart in the source
[5] = target: T1, human amylin receptor (amylin 3(a) …); assay: SPA competition, displacement of 125I-rat amylin from membranes of BHK cells with human calcitonin receptor + RAMP-3 (Assay V)
Procedure: (§1) The binding assay was performed using scintillation proximity assay (SPA) beads (RPNQ0001) from PerkinElmer and cell membranes from the Amylin 3(a)/CRE-luc cells (as described in Assay (II)) were used. Membranes were prepared in the following way; the cells were rinsed with PBS and incubated with Versene for approximately 5 min before harvesting. The cells were flushed with PBS and the cell-suspension was centrifuged for 5 min at 1000 rpm. Cells were homogenized (ultrathurrax) in a buffer containing 20 mM Na-HEPES and 10 mM EDTA (pH 7.4) and centrifuged at 20.000 rpm for 15 min. The resulting pellet was resuspended, homogenized and centrifuged (20.000 rpm, 15 min) in a buffer containing 20 mM Na-HEPES and 0.1 mM EDTA (pH 7.4, buffer 2). The resulting pellet was resuspended in buffer 2 and protein concentration was measured (BCA protein Assay, Pierce). The homogenate was kept cold during the whole procedure. The membranes were kept at −80° C. until use. The assay was performed in a 384 well Optiplate (PerkinElmer) in a total volume of 40 ul. Membranes were mixed with SPA beads. Final concentration of membranes 35 ng/μL final and SPA beads was 0.05 mg/well. Test-compounds were dissolved in DMSO and further diluted in assay buffer (50 mM Hepes, pH 7.4, 1 mM CaCl2, 5 mM MgCl₂, 0.1% OA and 0.02% Tween20). […] The final mixture was incubated with shaking at 400 rpm for 120 min at 25° C. prior to centrifugation (1500 rpm, 10 min). Samples were analyzed on TopCounter™ (Packard). The IC₅₀ was calculated using (one site binding competition analysis) GraphPad Prism5 as a measure of receptor affinity.

[6] = target: T1, human amylin receptor (amylin 3(a) …); assay: as above; remark: listed apart in the source
Procedure: as §1

B1: N^ε1-[2-[2-[2-[[(4S)-4-carboxy-4-(19-carboxynonadecanoylamino)butanoyl]amino]ethoxy]ethoxy]acetyl]-[Arg17,Pro21,Pro27,Pro31,His35]-h-amylin (peptide)
peptide: K([AEEA-γGlu-C20 diacid])CNTATCATQRLANFLRHSSPNFGAIPSSTPVGSHTY-NH2
modifications: disulfide 2-7; N-terminus assumed
SMILES: CC[C@H](C)[C@H](NC(=O)[C@H](C)NC(=O)CNC(=O)[C@H](Cc1ccccc1)NC(=O)[C@H](CC(N)=O)NC(=O)[C@@H]1CCCN1C(=O)[C@H](CO)NC(=O)[C@H](CO)NC(=O)[C@H](Cc1c[nH]cn1)NC(=O)[C@H](CCCNC(=N)N)NC(=O)[C@H](CC(C)C)NC(=O)[C@H](Cc1ccccc1)NC(=O)[C@H](CC(N)=O)NC(=O)[C@H](C)NC(=O)[C@H](CC(C)C)NC(=O)[C@H](CCCNC(=N)N)NC(=O)[C@H](CCC(N)=O)NC(=O)[C@@H](NC(=O)[C@H](C)NC(=O)[C@@H]1CSSC[C@H](NC(=O)[C@@H](N)CCCCNC(=O)COCCOCCNC(=O)CC[C@H](NC(=O)CCCCCCCCCCCCCCCCCCC(=O)O)C(=O)O)C(=O)N[C@@H](CC(N)=O)C(=O)N[C@@H]([C@@H](C)O)C(=O)N[C@@H](C)C(=O)N[C@@H]([C@@H](C)O)C(=O)N1)[C@@H](C)O)C(=O)N1CCC[C@H]1C(=O)N[C@@H](CO)C(=O)N[C@@H](CO)C(=O)N[C@H](C(=O)N1CCC[C@H]1C(=O)N[C@H](C(=O)NCC(=O)N[C@@H](CO)C(=O)N[C@@H](Cc1c[nH]cn1)C(=O)N[C@H](C(=O)N[C@@H](Cc1ccc(O)cc1)C(N)=O)[C@@H](C)O)C(C)C)[C@@H](C)O
notes: also called compound 57
Ratio hCT/hAmylin funct. [1]: 35
hAmylin-R funct. EC50 (pM) [1]: 89 pM
hCTR funct. EC50 (pM) [2]: 3120 pM
Ratio hCT/hAmylin funct. [3]: 35
hAmylin-R funct. EC50 (pM) [3]: 89 pM
hCTR funct. EC50 (pM) [4]: 3120 pM
IC50 [5]: 0.115 nM
IC50 [6]: 0.115 nM

B2: N^ε1-[2-[2-[2-[[(4S)-4-carboxy-4-(19-carboxynonadecanoylamino)butanoyl]amino]ethoxy]ethoxy]acetyl]-[Arg17,Pro21,Pro27,Pro34,His35]-h-amylin (peptide)
peptide: K([AEEA-γGlu-C20 diacid])CNTATCATQRLANFLRHSSPNFGAIPSSTNVGPHTY-NH2
modifications: disulfide 2-7; N-terminus assumed
SMILES: CC[C@H](C)[C@H](NC(=O)[C@H](C)NC(=O)CNC(=O)[C@H](Cc1ccccc1)NC(=O)[C@H](CC(N)=O)NC(=O)[C@@H]1CCCN1C(=O)[C@H](CO)NC(=O)[C@H](CO)NC(=O)[C@H](Cc1c[nH]cn1)NC(=O)[C@H](CCCNC(=N)N)NC(=O)[C@H](CC(C)C)NC(=O)[C@H](Cc1ccccc1)NC(=O)[C@H](CC(N)=O)NC(=O)[C@H](C)NC(=O)[C@H](CC(C)C)NC(=O)[C@H](CCCNC(=N)N)NC(=O)[C@H](CCC(N)=O)NC(=O)[C@@H](NC(=O)[C@H](C)NC(=O)[C@@H]1CSSC[C@H](NC(=O)[C@@H](N)CCCCNC(=O)COCCOCCNC(=O)CC[C@H](NC(=O)CCCCCCCCCCCCCCCCCCC(=O)O)C(=O)O)C(=O)N[C@@H](CC(N)=O)C(=O)N[C@@H]([C@@H](C)O)C(=O)N[C@@H](C)C(=O)N[C@@H]([C@@H](C)O)C(=O)N1)[C@@H](C)O)C(=O)N1CCC[C@H]1C(=O)N[C@@H](CO)C(=O)N[C@@H](CO)C(=O)N[C@H](C(=O)N[C@@H](CC(N)=O)C(=O)N[C@H](C(=O)NCC(=O)N1CCC[C@H]1C(=O)N[C@@H](Cc1c[nH]cn1)C(=O)N[C@H](C(=O)N[C@@H](Cc1ccc(O)cc1)C(N)=O)[C@@H](C)O)C(C)C)[C@@H](C)O
notes: also called compound 58
Ratio hCT/hAmylin funct. [1]: 21.9
hAmylin-R funct. EC50 (pM) [1]: 47 pM
hCTR funct. EC50 (pM) [2]: 1030 pM
Ratio hCT/hAmylin funct. [3]: 21.9
hAmylin-R funct. EC50 (pM) [3]: 47 pM
hCTR funct. EC50 (pM) [4]: 1030 pM
IC50 [5]: 0.088 nM
IC50 [6]: 0.088 nM

B3: N^ε1-[(4S)-4-carboxy-4-(19-carboxynonadecanoylamino)butanoyl]-[His14,Arg17,Pro21,Pro27,His35]-h-amylin (peptide)
peptide: K([γGlu-C20 diacid])CNTATCATQRLAHFLRHSSPNFGAIPSSTNVGSHTY-NH2
modifications: disulfide 2-7; N-terminus assumed
SMILES: CC[C@H](C)[C@H](NC(=O)[C@H](C)NC(=O)CNC(=O)[C@H](Cc1ccccc1)NC(=O)[C@H](CC(N)=O)NC(=O)[C@@H]1CCCN1C(=O)[C@H](CO)NC(=O)[C@H](CO)NC(=O)[C@H](Cc1c[nH]cn1)NC(=O)[C@H](CCCNC(=N)N)NC(=O)[C@H](CC(C)C)NC(=O)[C@H](Cc1ccccc1)NC(=O)[C@H](Cc1c[nH]cn1)NC(=O)[C@H](C)NC(=O)[C@H](CC(C)C)NC(=O)[C@H](CCCNC(=N)N)NC(=O)[C@H](CCC(N)=O)NC(=O)[C@@H](NC(=O)[C@H](C)NC(=O)[C@@H]1CSSC[C@H](NC(=O)[C@@H](N)CCCCNC(=O)CC[C@H](NC(=O)CCCCCCCCCCCCCCCCCCC(=O)O)C(=O)O)C(=O)N[C@@H](CC(N)=O)C(=O)N[C@@H]([C@@H](C)O)C(=O)N[C@@H](C)C(=O)N[C@@H]([C@@H](C)O)C(=O)N1)[C@@H](C)O)C(=O)N1CCC[C@H]1C(=O)N[C@@H](CO)C(=O)N[C@@H](CO)C(=O)N[C@H](C(=O)N[C@@H](CC(N)=O)C(=O)N[C@H](C(=O)NCC(=O)N[C@@H](CO)C(=O)N[C@@H](Cc1c[nH]cn1)C(=O)N[C@H](C(=O)N[C@@H](Cc1ccc(O)cc1)C(N)=O)[C@@H](C)O)C(C)C)[C@@H](C)O
notes: also called compound 66
Ratio hCT/hAmylin funct. [1]: 20.1
hAmylin-R funct. EC50 (pM) [1]: 27 pM
hCTR funct. EC50 (pM) [2]: 542 pM
Ratio hCT/hAmylin funct. [3]: 20.1
hAmylin-R funct. EC50 (pM) [3]: 27 pM
hCTR funct. EC50 (pM) [4]: 542 pM
IC50 [5]: 0.396 nM
IC50 [6]: 0.396 nM

B4: N^ε1-[(4S)-4-carboxy-4-(19-carboxynonadecanoylamino)butanoyl]-[Arg17,Pro21,Pro27,His35]-h-amylin (peptide)
peptide: K([γGlu-C20 diacid])CNTATCATQRLANFLRHSSPNFGAIPSSTNVGSHTY-NH2
modifications: disulfide 2-7; N-terminus assumed
SMILES: CC[C@H](C)[C@H](NC(=O)[C@H](C)NC(=O)CNC(=O)[C@H](Cc1ccccc1)NC(=O)[C@H](CC(N)=O)NC(=O)[C@@H]1CCCN1C(=O)[C@H](CO)NC(=O)[C@H](CO)NC(=O)[C@H](Cc1c[nH]cn1)NC(=O)[C@H](CCCNC(=N)N)NC(=O)[C@H](CC(C)C)NC(=O)[C@H](Cc1ccccc1)NC(=O)[C@H](CC(N)=O)NC(=O)[C@H](C)NC(=O)[C@H](CC(C)C)NC(=O)[C@H](CCCNC(=N)N)NC(=O)[C@H](CCC(N)=O)NC(=O)[C@@H](NC(=O)[C@H](C)NC(=O)[C@@H]1CSSC[C@H](NC(=O)[C@@H](N)CCCCNC(=O)CC[C@H](NC(=O)CCCCCCCCCCCCCCCCCCC(=O)O)C(=O)O)C(=O)N[C@@H](CC(N)=O)C(=O)N[C@@H]([C@@H](C)O)C(=O)N[C@@H](C)C(=O)N[C@@H]([C@@H](C)O)C(=O)N1)[C@@H](C)O)C(=O)N1CCC[C@H]1C(=O)N[C@@H](CO)C(=O)N[C@@H](CO)C(=O)N[C@H](C(=O)N[C@@H](CC(N)=O)C(=O)N[C@H](C(=O)NCC(=O)N[C@@H](CO)C(=O)N[C@@H](Cc1c[nH]cn1)C(=O)N[C@H](C(=O)N[C@@H](Cc1ccc(O)cc1)C(N)=O)[C@@H](C)O)C(C)C)[C@@H](C)O
notes: also called compound 60
Ratio hCT/hAmylin funct. [1]: 15.3
hAmylin-R funct. EC50 (pM) [1]: 351 pM
hCTR funct. EC50 (pM) [2]: 5360 pM
Ratio hCT/hAmylin funct. [3]: 15.3
hAmylin-R funct. EC50 (pM) [3]: 351 pM
hCTR funct. EC50 (pM) [4]: 5360 pM
IC50 [5]: 0.695 nM
IC50 [6]: 0.695 nM

K([γGlu-C20 diacid])CNTATCATQRLAEFLRHSSPNFGAIPSSTNVGPHTY-NH2 (disulfide 2-7)
hAmylin-R funct. EC50 (pM) [1]: 101 pM
hCTR funct. EC50 (pM) [2]: 1450 pM
hAmylin-R funct. EC50 (pM) [3]: 101 pM
hCTR funct. EC50 (pM) [4]: 1450 pM
IC50 [5]: 0.179 nM
IC50 [6]: 0.179 nM
